Test results as given in paper PMC3817407.

B1: AS01_3473 (protein)
chain: MSNYDNAELLALWLEGKLTPKQRDEFEQRCIQDSQFAEQVDAAAMVKIGADDYSSSEVPQWNKAATFEPQQANNSGSWLSGVSLVTSALAIVLVLTGTQVTTSEGELRIRFGSGQSEQALVKLVDSKLDAFKQNQQDAFTLYAQTLQQQQSESASQLTNYLLSSSRKERREDFAELIKFVNQQRSDDQLFYARQLNQLQQDVYHDATGVALESIQQ
B2: AS03_1198 (protein)
chain: MDKDFDFDNIGKRTPYRTPDNFFEETQRKILERTVDEQRKKRRLKRIIPTVIAVAAVLAGILFTPSLRYMNTDTPSASNILAVDKNNVTTDPVDKWIKELSDEELEELVSFSENDIFLN
B3: AS03_1244 (protein)
chain: MKQFDPDVNIRPKEDSIRHYSVPDDYFASFTDKLMAQIPAVKEENTVVVPSVALWPKLRPLLYLAASFLLMIGMFKAFSLFGVGSDTGRTTSTSAGLVALDHGDTRWSEDTDYRDFLHDNCAETVSDEWVLTDFSE
B4: AS04_1609 (protein)
chain: MNRTTEQRNAEVMKTIGLLDQMPRVEVDHLFRVRLMQRIEAMEVKKTSWSALPGGAFNPRLAFMALLLMLNIASALMLFMHGTPQATGSSGAIAESLTEDYGGPALSYYDDQTTIDR
B5: AS11_987 (protein)
chain: MNKHPDNNLLEAYASGSIDAVSGLVVATHLETCSKCRAYVNQVEASQANTVSESPSEYSPEFDDMLNDIINAEPVNDNVVIQDTAFVNVAGKSFELPKTLVRFSDLVGSWRSYGGKVFSAQIDLGEDARVSLMYIGENVQIPQHTHRGLESTLVLHGGFSDEDGQYEEGDLMVRDASVKHSPFTQEGEDCLCLTVLTEPMIFTQGVARIFNLFGKGLYP

Biological target: T1, ECF20_992
T1 chain: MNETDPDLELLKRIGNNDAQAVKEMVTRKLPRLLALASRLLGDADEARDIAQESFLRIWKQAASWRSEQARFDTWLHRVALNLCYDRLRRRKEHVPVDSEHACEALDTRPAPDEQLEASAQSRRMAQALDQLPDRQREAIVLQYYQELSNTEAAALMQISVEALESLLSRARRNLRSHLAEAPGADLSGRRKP

Row | Binder | fold repression
1 | B1 | 2.52
2 | B2 | 0.888
3 | B3 | 1.93
4 | B4 | 7.41
5 | B5 | 3.26

Biological target: T2, ECF04_1609
T2 chain: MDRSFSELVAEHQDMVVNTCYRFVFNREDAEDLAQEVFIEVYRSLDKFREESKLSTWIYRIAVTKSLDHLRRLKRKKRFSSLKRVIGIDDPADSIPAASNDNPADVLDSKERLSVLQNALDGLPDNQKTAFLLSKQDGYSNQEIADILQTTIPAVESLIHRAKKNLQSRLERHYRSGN

Row | Binder | fold repression
6 | B1 | 1.67
7 | B2 | 1.54
8 | B3 | 2.42
9 | B4 | 7.83
10 | B5 | 2.66

Biological target: T3, ECF02_2817
T3 chain: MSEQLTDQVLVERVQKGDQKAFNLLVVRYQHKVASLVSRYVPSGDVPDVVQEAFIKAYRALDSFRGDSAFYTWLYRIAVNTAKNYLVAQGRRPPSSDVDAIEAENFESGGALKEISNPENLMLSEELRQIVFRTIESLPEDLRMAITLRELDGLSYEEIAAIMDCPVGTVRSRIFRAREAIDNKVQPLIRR

Row | Binder | fold repression
11 | B1 | 2.1
12 | B2 | 1.85
13 | B3 | 1.96
14 | B4 | 2.53
15 | B5 | 3.07

Biological target: T4, ECF31_34
T4 chain: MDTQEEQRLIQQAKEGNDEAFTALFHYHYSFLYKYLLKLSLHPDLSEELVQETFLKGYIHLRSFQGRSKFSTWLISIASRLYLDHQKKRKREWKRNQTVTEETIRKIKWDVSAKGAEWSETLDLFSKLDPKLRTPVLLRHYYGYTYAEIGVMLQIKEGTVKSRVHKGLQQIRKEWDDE

Row | Binder | fold repression
16 | B1 | 1.97
17 | B2 | 1.12
18 | B3 | 1.92
19 | B4 | 3.92
20 | B5 | 2.53

Biological target: T5, ECF03_1198
T5 chain: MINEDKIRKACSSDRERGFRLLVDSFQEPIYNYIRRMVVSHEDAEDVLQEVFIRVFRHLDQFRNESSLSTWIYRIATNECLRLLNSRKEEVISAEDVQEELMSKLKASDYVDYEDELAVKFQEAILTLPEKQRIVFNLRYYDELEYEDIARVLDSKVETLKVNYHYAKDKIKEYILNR

Row | Binder | fold repression
21 | B1 | 1.5
22 | B2 | 45.8
23 | B3 | 2.13
24 | B4 | 6.14
25 | B5 | 2.32

Biological target: T6, ECF33_423
T6 chain: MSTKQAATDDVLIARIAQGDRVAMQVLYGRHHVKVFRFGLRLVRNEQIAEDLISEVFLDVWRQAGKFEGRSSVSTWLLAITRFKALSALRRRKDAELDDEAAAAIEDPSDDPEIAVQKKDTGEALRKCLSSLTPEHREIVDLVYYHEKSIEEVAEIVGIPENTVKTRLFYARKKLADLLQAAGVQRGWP

Row | Binder | fold repression
26 | B1 | 1.1
27 | B2 | 0.857
28 | B3 | 1.65
29 | B4 | 3.53
30 | B5 | 2.38

Biological target: T7, ECF11_3726
T7 chain: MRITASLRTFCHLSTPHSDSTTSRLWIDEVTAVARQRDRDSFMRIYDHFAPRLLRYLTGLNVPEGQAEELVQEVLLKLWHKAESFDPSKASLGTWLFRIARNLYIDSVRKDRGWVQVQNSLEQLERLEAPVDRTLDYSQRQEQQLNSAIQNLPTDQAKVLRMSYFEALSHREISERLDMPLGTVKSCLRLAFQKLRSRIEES

Row | Binder | fold repression
31 | B1 | 5.65
32 | B2 | 1.38
33 | B3 | 3.57
34 | B4 | 13.9
35 | B5 | 6.99

Biological target: T8, ECF17_1458
T8 chain: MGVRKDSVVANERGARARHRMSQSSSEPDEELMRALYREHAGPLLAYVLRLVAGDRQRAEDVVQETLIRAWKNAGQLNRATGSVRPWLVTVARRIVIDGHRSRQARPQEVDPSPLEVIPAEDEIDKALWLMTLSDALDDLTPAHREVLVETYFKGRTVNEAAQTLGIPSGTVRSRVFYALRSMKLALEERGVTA

Row | Binder | fold repression
36 | B1 | 1.83
37 | B2 | 0.894
38 | B3 | 1.62
39 | B4 | 3.13
40 | B5 | 2.13

Biological target: T9, ECF14_1324
T9 chain: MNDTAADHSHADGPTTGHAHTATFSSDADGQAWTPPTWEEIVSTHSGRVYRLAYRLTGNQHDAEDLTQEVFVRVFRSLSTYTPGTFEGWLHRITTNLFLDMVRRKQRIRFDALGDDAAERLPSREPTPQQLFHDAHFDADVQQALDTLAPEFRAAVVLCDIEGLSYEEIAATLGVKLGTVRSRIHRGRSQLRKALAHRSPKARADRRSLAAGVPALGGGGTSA

Row | Binder | fold repression
41 | B1 | 2.61
42 | B2 | 0.798
43 | B3 | 2.35
44 | B4 | 8.02
45 | B5 | 3.15

Biological target: T10, ECF22_1147
T10 chain: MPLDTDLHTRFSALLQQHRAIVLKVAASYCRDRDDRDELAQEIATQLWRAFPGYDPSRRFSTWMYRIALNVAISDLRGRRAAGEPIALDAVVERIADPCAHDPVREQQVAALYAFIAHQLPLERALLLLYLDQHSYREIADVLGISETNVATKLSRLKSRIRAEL

Row | Binder | fold repression
46 | B1 | 3.4
47 | B2 | 1.28
48 | B3 | 2.3
49 | B4 | 5.37
50 | B5 | 2.64

biological target: ECF26_4464

Row | Binder | fold repression
51 | B1 | 2.22
52 | B2 | 1.48
53 | B3 | 2.21
54 | B4 | 6.23
55 | B5 | 2.97

Biological target: T11, ECF16_973
T11 chain: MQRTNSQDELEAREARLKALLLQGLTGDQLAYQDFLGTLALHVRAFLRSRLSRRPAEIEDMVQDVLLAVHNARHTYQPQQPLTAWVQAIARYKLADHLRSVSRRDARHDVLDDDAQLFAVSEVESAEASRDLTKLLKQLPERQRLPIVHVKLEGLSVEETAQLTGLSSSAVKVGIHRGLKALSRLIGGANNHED

Row | Binder | fold repression
56 | B1 | 1.49
57 | B2 | 1.49
58 | B3 | 1.79
59 | B4 | 6.3
60 | B5 | 2.76

Biological target: T12, ECF27_4265
T12 chain: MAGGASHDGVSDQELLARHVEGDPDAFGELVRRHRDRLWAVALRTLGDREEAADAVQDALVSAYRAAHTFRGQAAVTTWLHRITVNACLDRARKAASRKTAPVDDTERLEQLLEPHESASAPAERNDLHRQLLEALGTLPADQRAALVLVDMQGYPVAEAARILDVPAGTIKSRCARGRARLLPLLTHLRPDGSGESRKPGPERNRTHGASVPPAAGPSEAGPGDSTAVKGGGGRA

Row | Binder | fold repression
61 | B1 | 1.92
62 | B2 | 0.852
63 | B3 | 1.61
64 | B4 | 3.11
65 | B5 | 2.05

Biological target: T13, ECF28_1088
T13 chain: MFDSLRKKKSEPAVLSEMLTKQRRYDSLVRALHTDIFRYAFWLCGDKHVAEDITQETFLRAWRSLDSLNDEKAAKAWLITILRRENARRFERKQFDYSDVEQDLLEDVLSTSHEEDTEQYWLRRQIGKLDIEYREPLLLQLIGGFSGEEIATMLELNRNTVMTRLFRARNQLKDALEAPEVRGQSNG

Row | Binder | fold repression
66 | B1 | 1.59
67 | B2 | 1.24
68 | B3 | 1.36
69 | B4 | 0.742
70 | B5 | 1.97

Biological target: T14, ECF12_807
T14 chain: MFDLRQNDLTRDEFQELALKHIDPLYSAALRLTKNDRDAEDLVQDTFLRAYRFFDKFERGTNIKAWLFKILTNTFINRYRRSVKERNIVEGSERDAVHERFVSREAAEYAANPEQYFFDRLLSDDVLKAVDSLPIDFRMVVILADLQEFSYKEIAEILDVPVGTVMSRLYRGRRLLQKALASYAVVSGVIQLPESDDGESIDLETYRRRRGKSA

Row | Binder | fold repression
71 | B1 | 3.57
72 | B2 | 1.43
73 | B3 | 3.08
74 | B4 | 5.09
75 | B5 | 4.25
